# T1: FcγRIIb (human, UniProt P31994 43-217)
# T1 construct: extracellular domain; Soluble extracellular domain with C-terminal His tag, used as analyte; also called FcgRIIb; CD32B; not shown: His tag at the C terminus
# T1 sequence (looked up): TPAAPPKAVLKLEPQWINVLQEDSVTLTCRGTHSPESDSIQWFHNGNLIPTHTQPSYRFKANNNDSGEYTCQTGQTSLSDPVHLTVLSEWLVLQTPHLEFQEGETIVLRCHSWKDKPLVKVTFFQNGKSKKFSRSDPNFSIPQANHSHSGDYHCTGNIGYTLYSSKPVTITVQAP
# B1: GpH7-A5/GpH7-B3 variant S324_20W/GpL16-k0 (antibody, human IgG1, kappa)
# heavy 1: not shown
# heavy 2: not shown
# light: DIVMTQSPLSLPVTPGEPASISCQASESLVHSNRNTYLHWYLQKPGQSPQLLIYKVSNRFSGVPDRFSGSGSGTDFTLKISRVEAEDVGVYYCSQNTHVPPTFGQGTKVEIERTVAAPSVFIFPPSDEQLKSGTASVVCLLNNFYPREAKVQWKVDNALQSGNSQESVTEQDSKDSTYSLSSTLTLSKADYEKHKVYACEVTHQGLSSPVTKSFNRGEC
# notes: He Ab: mutation in one H chain only; also called He Ab
# B2: GpH7-A5/GpH7-B3 variant S337_04F/GpL16-k0 (antibody, human IgG1, kappa)
# heavy 1: not shown
# heavy 2: not shown
# light: B1 light
# notes: as for B1
# B3: GpH7-A5/GpH7-B3 variant S337_02A/GpL16-k0 (antibody, human IgG1, kappa)
# heavy 1: not shown
# heavy 2: not shown
# light: B1 light
# notes: as for B1
# B4: GpH7-A5/GpH7-B3 variant S324_10E/GpL16-k0 (antibody, human IgG1, kappa)
# heavy 1: not shown
# heavy 2: not shown
# light: B1 light
# notes: as for B1
# B5: GpH7-A5/GpH7-B3 variant S337_19Q/GpL16-k0 (antibody, human IgG1, kappa)
# heavy 1: not shown
# heavy 2: not shown
# light: B1 light
# notes: as for B1
# B6: GpH7-A5/GpH7-B3 variant S298_20W/GpL16-k0 (antibody, human IgG1, kappa)
# heavy 1: not shown
# heavy 2: not shown
# light: B1 light
# notes: as for B1
# B7: GpH7-A5/GpH7-B3 variant S337_12R/GpL16-k0 (antibody, human IgG1, kappa)
# heavy 1: not shown
# heavy 2: not shown
# light: B1 light
# notes: as for B1
# B8: GpH7-A5/GpH7-B3 variant S298_12R/GpL16-k0 (antibody, human IgG1, kappa)
# heavy 1: not shown
# heavy 2: not shown
# light: B1 light
# notes: as for B1
# B9: GpH7-A5/GpH7-B3 variant S324_11K/GpL16-k0 (antibody, human IgG1, kappa)
# heavy 1: not shown
# heavy 2: not shown
# light: B1 light
# notes: as for B1
# B10: GpH7-A5/GpH7-B3 variant Y300_06M/GpL16-k0 (antibody, human IgG1, kappa)
# heavy 1: not shown
# heavy 2: not shown
# light: B1 light
# notes: as for B1
# B11: GpH7-A5/GpH7-B3 variant N325_12R/GpL16-k0 (antibody, human IgG1, kappa)
# heavy 1: not shown
# heavy 2: not shown
# light: B1 light
# notes: as for B1
# B12: GpH7-A5/GpH7-B3 variant S298_09D/GpL16-k0 (antibody, human IgG1, kappa)
# heavy 1: not shown
# heavy 2: not shown
# light: B1 light
# notes: as for B1
# B13: GpH7-A5/GpH7-B3 variant S337_06M/GpL16-k0 (antibody, human IgG1, kappa)
# heavy 1: not shown
# heavy 2: not shown
# light: B1 light
# notes: as for B1
# B14: GpH7-A5/GpH7-B3 variant S298_15Y/GpL16-k0 (antibody, human IgG1, kappa)
# heavy 1: not shown
# heavy 2: not shown
# light: B1 light
# notes: as for B1
# B15: GpH7-A5/GpH7-B3 variant N325_05P/GpL16-k0 (antibody, human IgG1, kappa)
# heavy 1: not shown
# heavy 2: not shown
# light: B1 light
# notes: as for B1
# B16: GpH7-A5/GpH7-B3 variant S337_01G/GpL16-k0 (antibody, human IgG1, kappa)
# heavy 1: not shown
# heavy 2: not shown
# light: B1 light
# notes: as for B1
# B17: GpH7-A5/GpH7-B3 variant S298_10E/GpL16-k0 (antibody, human IgG1, kappa)
# heavy 1: not shown
# heavy 2: not shown
# light: B1 light
# notes: as for B1
# B18: GpH7-A5/GpH7-B3 variant Y300_05P/GpL16-k0 (antibody, human IgG1, kappa)
# heavy 1: not shown
# heavy 2: not shown
# light: B1 light
# notes: as for B1
# B19: GpH7-A5/GpH7-B3 variant S324_15Y/GpL16-k0 (antibody, human IgG1, kappa)
# heavy 1: not shown
# heavy 2: not shown
# light: B1 light
# notes: as for B1
# B20: GpH7-A5/GpH7-B3 variant N325_19Q/GpL16-k0 (antibody, human IgG1, kappa)
# heavy 1: not shown
# heavy 2: not shown
# light: B1 light
# notes: as for B1
# B21: GpH7-A5/GpH7-B3 variant S298_18N/GpL16-k0 (antibody, human IgG1, kappa)
# heavy 1: not shown
# heavy 2: not shown
# light: B1 light
# notes: as for B1
# B22: GpH7-A5/GpH7-B3 variant Y300_03V/GpL16-k0 (antibody, human IgG1, kappa)
# heavy 1: not shown
# heavy 2: not shown
# light: B1 light
# notes: as for B1
# B23: GpH7-A5/GpH7-B3 variant S337_11K/GpL16-k0 (antibody, human IgG1, kappa)
# heavy 1: not shown
# heavy 2: not shown
# light: B1 light
# notes: as for B1
# Molecular target: T2, FcγRIa (human, UniProt P12314 16-292)
# T2 construct: extracellular domain; Soluble extracellular domain with C-terminal His tag, used as analyte; also called FcgRI; CD64; not shown: His tag at the C terminus
# T2 sequence (P12314 16-292): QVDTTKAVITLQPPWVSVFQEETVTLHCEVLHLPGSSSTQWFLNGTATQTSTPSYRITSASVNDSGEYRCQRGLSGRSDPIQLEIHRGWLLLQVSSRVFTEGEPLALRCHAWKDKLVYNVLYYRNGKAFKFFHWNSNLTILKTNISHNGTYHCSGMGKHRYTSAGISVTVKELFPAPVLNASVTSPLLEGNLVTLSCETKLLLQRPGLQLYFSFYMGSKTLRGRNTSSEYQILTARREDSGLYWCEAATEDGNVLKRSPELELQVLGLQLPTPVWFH
# Assay: SPR (Biacore), captured antibody, FcγR as analyte, relative binding
# Method: (§1) The heterodimerized antibodies He Abs in which one of the H chains was introduced with an alteration were assayed for their binding activities to each activating FcγR and inhibitory FcγR according to the method described in Example 4. […] The activating FcγRs in FIGS. 26, 27, 28, and 29 are FcγRIa, FcγRIIa (R), FcγRIIa (H), and FcγRIIIa, respectively.
# (§2) Analysis of interaction between objective antibody and the FcγR was carried out using Biacore T100 (GE Healthcare). HBS-EP+ (GE Healthcare) was used as the running buffer, and the measurement temperature was set to 25° C. Chips produced by immobilizing the antigen peptide by the amine coupling method to a Series S Sencor Chip CM5 (GE Healthcare), or alternatively, chips produced by allowing preliminarily biotinylated antigen peptides to interact with and immobilize onto a Series S Sensor Chip SA (certified) (GE Healthcare) were used. Antibodies of interest were captured onto an antigen peptide-immobilized chip, and allowed to interact to each FcγR diluted with running buffer. To regenerate and repeatedly use the chip, the antibodies captured on the chip were washed off by reacting 10 mM glycine-HCl, pH 1.5.
row,He/Con_1a,Binder
1,114 % of GpH7-A5/GpH7-B3/GpL16-k0,B1
2,106 % of GpH7-A5/GpH7-B3/GpL16-k0,B2
3,106 % of GpH7-A5/GpH7-B3/GpL16-k0,B3
4,105 % of GpH7-A5/GpH7-B3/GpL16-k0,B4
5,105 % of GpH7-A5/GpH7-B3/GpL16-k0,B5
6,104 % of GpH7-A5/GpH7-B3/GpL16-k0,B6
7,106 % of GpH7-A5/GpH7-B3/GpL16-k0,B7
8,109 % of GpH7-A5/GpH7-B3/GpL16-k0,B8
9,102 % of GpH7-A5/GpH7-B3/GpL16-k0,B9
10,112 % of GpH7-A5/GpH7-B3/GpL16-k0,B10
11,84.2 % of GpH7-A5/GpH7-B3/GpL16-k0,B11
12,106 % of GpH7-A5/GpH7-B3/GpL16-k0,B12
13,107 % of GpH7-A5/GpH7-B3/GpL16-k0,B13
14,107 % of GpH7-A5/GpH7-B3/GpL16-k0,B14
15,88.8 % of GpH7-A5/GpH7-B3/GpL16-k0,B15
16,107 % of GpH7-A5/GpH7-B3/GpL16-k0,B16
17,108 % of GpH7-A5/GpH7-B3/GpL16-k0,B17
18,60.2 % of GpH7-A5/GpH7-B3/GpL16-k0,B18
19,114 % of GpH7-A5/GpH7-B3/GpL16-k0,B19
20,99.1 % of GpH7-A5/GpH7-B3/GpL16-k0,B20
21,108 % of GpH7-A5/GpH7-B3/GpL16-k0,B21
22,117 % of GpH7-A5/GpH7-B3/GpL16-k0,B22
23,104 % of GpH7-A5/GpH7-B3/GpL16-k0,B23

# Molecular target: T1, FcγRIIb
# Assay: as above
# Method: as §1, §2
row,He/Con_2b,Binder
1,87.5 % of GpH7-A5/GpH7-B3/GpL16-k0,B1
2,97.8 % of GpH7-A5/GpH7-B3/GpL16-k0,B2
3,97.2 % of GpH7-A5/GpH7-B3/GpL16-k0,B3
4,77.4 % of GpH7-A5/GpH7-B3/GpL16-k0,B4
5,99.7 % of GpH7-A5/GpH7-B3/GpL16-k0,B5
6,41.1 % of GpH7-A5/GpH7-B3/GpL16-k0,B6
7,99.5 % of GpH7-A5/GpH7-B3/GpL16-k0,B7
8,57.8 % of GpH7-A5/GpH7-B3/GpL16-k0,B8
9,68.6 % of GpH7-A5/GpH7-B3/GpL16-k0,B9
10,84.3 % of GpH7-A5/GpH7-B3/GpL16-k0,B10
11,19.1 % of GpH7-A5/GpH7-B3/GpL16-k0,B11
12,48.3 % of GpH7-A5/GpH7-B3/GpL16-k0,B12
13,96.7 % of GpH7-A5/GpH7-B3/GpL16-k0,B13
14,61.4 % of GpH7-A5/GpH7-B3/GpL16-k0,B14
15,26 % of GpH7-A5/GpH7-B3/GpL16-k0,B15
16,92 % of GpH7-A5/GpH7-B3/GpL16-k0,B16
17,47.6 % of GpH7-A5/GpH7-B3/GpL16-k0,B17
18,7.3 % of GpH7-A5/GpH7-B3/GpL16-k0,B18
19,88.2 % of GpH7-A5/GpH7-B3/GpL16-k0,B19
20,69.1 % of GpH7-A5/GpH7-B3/GpL16-k0,B20
21,48.1 % of GpH7-A5/GpH7-B3/GpL16-k0,B21
22,73.9 % of GpH7-A5/GpH7-B3/GpL16-k0,B22
23,94.3 % of GpH7-A5/GpH7-B3/GpL16-k0,B23
